The text below walks through data of US20020028208A1 (TEXAS A AND M UNIVERSITY SYSTEM, published 2002).

B1: feline CD80 (B7-1)-TAMU, surface expressed on feCD80/pSI transfected COS-7 cells (ligand)
chain: ASLFYFCSGIIQVNKTVEEVAVLSCDYNISTKELTEIRIYWQKDDEMVLAVMSGKVQVWPKYKNRTFTDVTDNHSIVIMALRLSDNGKYTCIIQKIEKGSYKVKHLTSVMLLVRADFPVPSITDLGNPSHNIKRIMCLTSGGFPKPHLSWLENEEELNAINTTVSQDPETELYTISSELDFNMTNNHSFLCLVKYGNLLVSQIFNWQKSEPQPSNNQLWIIILSSVVSGIVVITALTLRCLVHRPAARWRQREMGRARKWKRSHLST
notes: also called CD80-pSI transfected COS cells
B2: feline CD28, surface expressed on CD28-pSI transfected COS-7 cells (receptor)
chain: NKILVKQLPRLVVYNNEVNLSCKYTHNFFSKEFRASLYKGVDSAVEVCVVNGNYSHQPQFYSSTGFDCDGKLGNETVTFYLRNLFVNQTDIYFCKIEVMYPPPYIDNEKSNGTIIHVKEKHLCPAQLSPESSKPFWALVVVGGILGFYSLLATVALGACWMKTKRSRILQSDYMNMTPRRPGPTRRHYQPYAPARDFAAYRS
notes: also called feCD28; CD28 pSI transfected cells

Assay [1] concerns the target B2. The experiment in a line: cell-cell adhesion assay at 1x10^6 labeled CD80-pSI COS-7 cells on a CD28-pSI COS-7 monolayer; still significantly higher at 5x10^5 cells, not distinguishable at 1x10^5 and 1x10^4. On the procedure: (§1) Binding assays for transfected cells expressing feline CD80 and feline CD28 were performed after the protocol described in Linsley et al., 1994a. One day after transfection, CD28 expressing COS-7 cells were removed from T-75 flasks with trypsin-EDTA treatment. The cells were allowed to adhere in 24 well plates at a concentration of 1×10⁵ cells per ml. Two days later, the feCD80/pSI transfected COS-7 cells were removed from T-75 flasks with PBS/0.5 […] EDTA. These cells were then fluorescently labeled with a 5 μM solution of Calcein AM (Molecular Probes, Eugene, Oreg.) in sterile PBS/1% BSA for 30 min at 37° C. (Akeson and Woods, 1993). Mock transfected COS-7 cells were labeled in the same fashion. The labeled cells were then washed three times with DMEM plus 10% FCS to remove unincorporated label, counted, and added directly to the monolayer. The two cell populations were allowed to interact for 1 hr at 37° C. Nonadherent cells were removed by gently washing the monolayer 3 times with DMEM +10% FCS. Following the washing, the fluorescence of each of the wells was quantitated on a microplate fluorimeter. Fluorescence in wells containing transfected populations was compared to wells in which CD80 expressing cells were added to COS-7 cells transfected with pSI plasmid alone. […]

The next assay addresses T1, huCD80-Ig fusion protein (human, UniProt P33681 35-241).
T1 construct: Provided by P. Linsley, Bristol-Meyers Squibb; also called soluble CD80 receptor; soluble receptor for CD28; not shown: Ig part of the fusion
T1 sequence (looked up): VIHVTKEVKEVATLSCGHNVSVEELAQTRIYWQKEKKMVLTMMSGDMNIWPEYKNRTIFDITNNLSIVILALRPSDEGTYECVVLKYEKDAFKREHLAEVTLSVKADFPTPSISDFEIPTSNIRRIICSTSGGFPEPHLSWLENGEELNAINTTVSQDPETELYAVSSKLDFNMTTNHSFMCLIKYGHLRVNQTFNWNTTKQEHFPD
The experiment in a line: competitive cell-cell adhesion assay: CD28-pSI COS-7 monolayer pre-incubated with CD80 Ig at 1 ug/ml for 30 min and washed before labeled CD80-pSI COS-7 cells were added. On the procedure: as §1

With B1, the “fluorescence retained, fold over wells with mock transfected adherent cells” value in assay [1] was approximately 5 fold.
Consider B2, for which, in the assay with huCD80-Ig fusion protein, the binding result is reported as “binds”.
